{
  "source": "the nanobody polyreactivity screen of Harvey et al. (2022)",
  "data": [
    {"test": "yeast display, Sf9 membrane polyspecificity reagent, FACS + sequencing; frameworks hold sequencing errors", "method_in_brief": "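Synthetic nanobody libraries on Saccharomyces cerevisiae BJ5465 were galactose-induced for 36–48 hours, stained 1 hour at 4 °C with 10% biotinylated, detergent-solubilized Sf9 membrane reagent and enriched on streptavidin microbeads. FACS then separated cells into low and high (top ~1%) gates by anti-HA (expression) and streptavidin (reagent binding) fluorescence. Genes were colony-PCR amplified, MiSeq 2 × 250 sequenced and CDR-length filtered. A clone's polyreactivity label is that of its gate of origin.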", "values": [
      {"sequence": "QVQLVESGGGLVQAGGSLRLSCAASGFTFSEYVMGWYRQAPGKERELVAVITSGSSTYYADSVKGRFTISRDNAKNTVYLQMNSLTPEDTAVYYCAAESYFFSPRTREKFDYWGQGTQVTVSA", "polyreactivity (PSR sort gate)": "low polyreactivity"},
      {"sequence": "QVQLVESGGGLVQAGGSLRLSCAASGFTFSFYAIGLYRQATVKEREVVAAISWSGGSTYYADSVKGRFTISRDNAKNTVYLQMNSLKPEDTAVYFCAAKLLYGGRNGYWGQGTQVTVSS", "polyreactivity (PSR sort gate)": "high polyreactivity"},
      {"sequence": "QVQLVESGGGLVQAGGSLRLSCAASGFTFSFYAMGWYRQAPGKERELVAAIDRSGGSTYYADSVKGRFTISRDNAKNTVYLQMNSLKPEDTAVYYCAATVFYGYYYWGQGTQVTVSS", "polyreactivity (PSR sort gate)": "high polyreactivity"},
      {"sequence": "QVQLVESGGGLVQAGGSLRLSCAASGFTFSFYAMGWYRQAPGKERELVAAITSRGTSTYYADSVKGRFTISRDNAKNTVYLQMNSLKPEDTEVYYCAKLLPRGQWPYDYWGQGTQVTVSS", "polyreactivity (PSR sort gate)": "high polyreactivity"},
      {"sequence": "QVQLVESGGGLVQAGGSLRLSCAASGFTFSHNAMGWSRQAPGKERELVAGINGSGGSTYYADSVKGRFTISRDNAKNTFYLQMNSLKPEDTAVYYCSKDGSNRLALPAWDYNYWGQGTQVTVSS", "polyreactivity (PSR sort gate)": "low polyreactivity"},
      {"sequence": "QVQLVESGGGLVQAGGSLRLSCAASGFTFSHYAMGLSRQAPGKERELVAAITWSGGSTYYADSVKGRFTISRDNAKNTVYLQMKSLKPEDTAVYYCIALVIARNIEMDYWGQGTQVTVSS", "polyreactivity (PSR sort gate)": "high polyreactivity"},
      {"sequence": "QVQLVESGGGLVQAGGSLRLSCAASGFTFSHYAMGWYRQAPGKEMELVAAITWSGGSTYYADSVKGRFTISRDNAKNTVYLQMNSLKPEDTAVYYCAAESYLDGGDYWGQGTQVTVSS", "polyreactivity (PSR sort gate)": "high polyreactivity"},
      {"sequence": "QVQLVESGGGLVQAGGSLRLSCAASGFTFSKYAMGLYRQAPGKERELVAAITRRGSSTYYADSVKGRFTLSRDNAKNTVYLQMNSLKPEDTAVYYCNAPRPNGYLGEDNYWGQGTKVTVSS", "polyreactivity (PSR sort gate)": "high polyreactivity"},
      {"sequence": "QVQLVESGGGLVQAGGSLRLSCAASGFTFSKYAMGWYRQAPGKERELVAAISRSAGSTYYADSVKGRFTISRDNAKNTVYLQMNSLKPEDNAVYYCARDNPRSPSGYNYWGQGSQVTVSS", "polyreactivity (PSR sort gate)": "high polyreactivity"},
      {"sequence": "QVQLVESGGGLVQAGGSLRLSCAASGFTFSKYAMGWYRQAPGKERELVAAITRRGSSTYYADSVKGRFTISRDNAKNTVYLQMNSLKPEDTAVYYCNAPRPNGYLGEDNYWGQGTQVTVSS", "polyreactivity (PSR sort gate)": "high polyreactivity"},
      {"sequence": "QVQLVESGGGLVQAGGSLRLSCAASGFTFSKYAMGWYRQAPGKERELVASIDDGGSTNYADSVKGRFTISRDNAKNTVYLQKNSLKPEDTAVYYCNASYPTGYWYYVIVQYDYWGQGTQVTVSS", "polyreactivity (PSR sort gate)": "low polyreactivity"},
      {"sequence": "QVQLVESGGGLVQAGGSLRLSCAASGFTFSKYAMGWYRQAPVKERELVATITRGGNTYYADSVKGRFTISRDNAKNTVYLQMNSLKPEDTAVYYCNTGRRNRLYDYDYWGQVTQVTVSS", "polyreactivity (PSR sort gate)": "high polyreactivity"},
      {"sequence": "QVQLVESGGGLVQAGGSLRLSCAASGFTFSKYTMGWYRQAPGKERELVAAITSGGSTYYADSVKGRFTISRDNAKNTVYLQMNSLKPEDTAVYYCNAESRHVFEDEYWGQGTQVTVSS", "polyreactivity (PSR sort gate)": "low polyreactivity"},
      {"sequence": "QVQLVESGGGLVQAGGSLRLSCAASGFTFSLYGMGWYRQAPGKERELVAAIRSGGSRNYADSVKGRFTISRDNAKNTVYLQMNSLKPEDTAVYYCATDIHSVHNNRDKHDYDYWGQGTQVTVSS", "polyreactivity (PSR sort gate)": "low polyreactivity"},
      {"sequence": "QVQLVESGGGLVQAGGSLRLSCAASGFTFSLYGMGWYRQAPGKERELVAAIRSGGSTNYADSVKGRFTISRDNAKNTVYLQMNSLKPEDTAVYYCATDIHSVHNNRDKHDYDYWGQGTQVTVSS", "polyreactivity (PSR sort gate)": "low polyreactivity"},
      {"sequence": "QVQLVESGGGLVQAGGSLRLSCAASGFTFSLYTKGWYRQATGKERELVADISDGGITNYADSVKGRFTISRDNAKNTVYLQMHSLKPEDTAVYYCAADYQFLFFWNLFYEDYDYWGQGTQVTVSS", "polyreactivity (PSR sort gate)": "high polyreactivity"},
      {"sequence": "QVQLVESGGGLVQAGGSLRLSCAASGFTFSQYVMGWSRQAPGKERELVASITGKGGSTRYADSVKGRFTISRDNAKNTVYLQMNSLKQEDTAVYYCAARYVYFRWGSFDYWGQGTQVTVSS", "polyreactivity (PSR sort gate)": "high polyreactivity"},
      {"sequence": "QVQLVESGGGLVQAGGSLRLSCAASGFTFSRKAMGWYRQAPGKERELVASITRSGASTYYADSVKGRFTISRDNAKNTVYLQMNSLKPEDTAVYYCNAYYVALPPNMDYWGQGTQVTLSS", "polyreactivity (PSR sort gate)": "high polyreactivity"},
      {"sequence": "QVQLVESGGGLVQAGGSLRLSCAASGFTFSRNTMGWYRQAPGKARELVARISASGGSTYYADSVKGRFTISRDNAKNTVYLQMNSLKPEDTAVYYCAAVYRRYGGSRYDYWGQGTQVTVSS", "polyreactivity (PSR sort gate)": "high polyreactivity"},
      {"sequence": "QVQLVESGGGLVQAGGSLRLSCAASGFTFSRNVMGWYRQAPGKERELVADITLSGASTYYADSVKGRFTISRDNAKNTVYLQMNSLKPEDTAVYYCAADPYHWRWGWRLDYWGQGTQVTVSS", "polyreactivity (PSR sort gate)": "low polyreactivity"},
      {"sequence": "QVQLVESGGGLVQAGGSLRLSCAASGFTFSRYAMGWYIQAPGKERELVAAITRGGSTNYADSVKGRFTISRDNAKNTVYLQMNSLKPEDTAVYYCAVRIRYSTNAYYYWGQGTQVTVSS", "polyreactivity (PSR sort gate)": "high polyreactivity"},
      {"sequence": "QVQLVESGGGLVQAGGSLRLSCAASGFTFSRYAMGWYRQAPGKERELVAAISYSGGRTYYADSVKGRFTISRDNAKNTVYLQMNSLKPEDTAVYYCNATWQSGHGWGQGTQVTVSS", "polyreactivity (PSR sort gate)": "high polyreactivity"},
      {"sequence": "QVQLVESGGGLVQAGGSLRLSCAASGFTFSRYTMGWYRQAPGKERELVAAINRRGGSTYYADSVKGRFTISRDNAKNTVYLQMNSLKPEDTAVYYCAAAVYLGRFGVILGYWGQGTQVTVSS", "polyreactivity (PSR sort gate)": "high polyreactivity"},
      {"sequence": "QVQLVESGGGLVQAGGSLRLSCAASGFTFSRYTMGWYRQAPGKERELVAAISFSGVRTYYADSVKGRFTISRDNAKNSVYLQMNSLKPEDTAVYYCNRVSRTRGLNLYDYWGQGTQVTVSS", "polyreactivity (PSR sort gate)": "high polyreactivity"},
      {"sequence": "QVQLVESGGGLVQAGGSLRLSCAASGFTFSSYAMGGYRQAPGKERELVAAISSNGRTYYADSVKGRFTISRDNAKNTVYLQMNSQKREDTAVYYCARNIPVSYYRYGYWGQGTQVTVSS", "polyreactivity (PSR sort gate)": "high polyreactivity"},
      {"sequence": "QVQLVESGGGLVQAGGSLRLSCAASGFTFSSYAMGWSRQAPGKERELVAAITISGGRTYYADSVKGRFTISRDNAKNTVYLQMNSLIPEDTAVYYCAAVGRLARRDYWGQGTQVTVSS", "polyreactivity (PSR sort gate)": "high polyreactivity"},
      {"sequence": "QVQLVESGGGLVQAGGSLRLSCAASGFTFSSYAMGWYRQAPGKERELVAAITGGGSRTYYADSVKGRFTISRDNAKNTVYLQMYSLKPEDTAVYYCAKGLSTGRAYRGYDYWGQGTQVTVSS", "polyreactivity (PSR sort gate)": "high polyreactivity"},
      {"sequence": "QVQLVESGGGLVQAGGSLRLSCAASGFTFSSYAMGWYRQAPGKERELVAAITQSGGRTYYADSVKGRFTISRDNAKNTVYLQMNSLKPEDTAVYYCAADVPLWYDYGGQGTQVTVSS", "polyreactivity (PSR sort gate)": "low polyreactivity"},
      {"sequence": "QVQLVESGGGLVQAGGSLRLSCAASGFTFSTNAMAWYRQAPGKERELVAAITSSGGSTYYADSVKGRFTISRDNAKNTVYLQMNSLKPEDTAVYYCATGPSQVGGDYWGQGTQVTVSS", "polyreactivity (PSR sort gate)": "high polyreactivity"},
      {"sequence": "QVQLVESGGGLVQAGGSLRLSCAASGFTFSTNAMGWYRQAPGKERELVAAISKSGVSTYYADSVKGRFTISRDNAKNTVYLQMNSLKTEDTAVYYCAADPKIALYKVWRYDYWGQGTQVTVSS", "polyreactivity (PSR sort gate)": "high polyreactivity"},
      {"sequence": "QVQLVESGGGLVQAGGSLRLSCAASGFTFSTYAMGWYRQAPGKERELVAAISRSGGSTYYADSVKGRFTISRDNAKNTVYLQMNSLKPEDTAVYYCAADGLRRESSYYYWGQGTQVTVSS", "polyreactivity (PSR sort gate)": "high polyreactivity"},
      {"sequence": "QVQLVESGGGLVQAGGSLRLSCAASGFTFSTYAMGWYRQAPGKESELVAVISGGDSTSYADSVKGRFTISRDNAKNTVYLQMNSLKPEDTAVYYCAADRYGGYYGDTYYTGLFNYWGQGTQVTVSS", "polyreactivity (PSR sort gate)": "high polyreactivity"},
      {"sequence": "QVQLVESGGGLVQAGGSLRLSCAASGFTFSVYAMGWYRQAPGKERELVAVITKRGGSTYYADSVKGRFTISRDNAKNTVYLQMNSLKPEDTAVYYCNAYLQGKIFPYGYWGQGTQVTVSS", "polyreactivity (PSR sort gate)": "high polyreactivity"},
      {"sequence": "QVQLVESGGGLVQAGGSLRLSCAASGFTFSVYVMGWYRQAPGKERELVAAISSGGDTTYADSVKGRFTISRDNAKNTVYLQMNSLKPEDTAVYYCAAYRVILYYLYDYWGQGTQVTVSS", "polyreactivity (PSR sort gate)": "low polyreactivity"},
      {"sequence": "QVQLVESGGGLVQAGGSLRLSCAASGFTFSWNTMGWYRQAPGKERELVATISGSGGRTYYADSVKGRFTISRDKAKNTVYLQLNSLKPEDTAVYYCAKRRASRYYWGQGTQVTVSS", "polyreactivity (PSR sort gate)": "high polyreactivity"},
      {"sequence": "QVQLVESGGGLVQAGGSLRLSCAASGFTFSWNVMGWYRQAPGKERELVAAISTSYGGTYYADSVKGRFTISRDNAKNTVYLQMNSLKPEDTAVYYCATLYYPNTSYEYYYWGQGTQVTVSS", "polyreactivity (PSR sort gate)": "low polyreactivity"},
      {"sequence": "QVQLVESGGGLVQAGGSLRLSCAASGFTFSWYAMGWSRQAPGKERELVAGISYSGTRTFYADSVKGRFTISRDNAKNTVYLQMNSLTPEDTAVYYCAAVVPGRTVLQPEYDYWGQGTQVTVSS", "polyreactivity (PSR sort gate)": "low polyreactivity"},
      {"sequence": "QVQLVESGGGLVQAGGSLRLSCAASGFTFSWYAMGWYRQAPGKERELVAAINADGGTTYYADSVKGRFTISRDNAKNTVYLQMNSLKPEDTAVYYCAVPYPYGYEYDHWGQGTQVTVSS", "polyreactivity (PSR sort gate)": "low polyreactivity"},
      {"sequence": "QVQLVESGGGLVQAGGSLRLSCAASGFTFSWYAMGWYRQAPGKERELVAAITRSGGSTNYADSVKGRFTISRDNAKNTVYLQMNSLKPEDTAVYYCNAAGYRRSTWWYDYWGQGTQVTVSS", "polyreactivity (PSR sort gate)": "high polyreactivity"},
      {"sequence": "QVQLVESGGGLVQAGGSLRLSCAASGFTFSYNAMGWYRQAPGKERELVAAISSGGRTHYADSVKGRFTISRDNAKNTVYLQMNILKPEDTAVYYCNAQKYPRYSRTSGRNYNYWGQGTQVTVSS", "polyreactivity (PSR sort gate)": "high polyreactivity"},
      {"sequence": "QVQLVESGGGLVQAGGSLRLSCAASGFTFSYYAMGWYRQAPGKERELVAAISWSGGSTYSADSVKGRFTISRDNAKNTVYLQMNSLKPEDTAVYYCAAEVYFLATGTWYDYWGQGTQVTVSS", "polyreactivity (PSR sort gate)": "high polyreactivity"}
    ]}
  ]
}
